{
  "source": "paper PMC8752480",
  "about": "(Journal of molecular biology, 2021)",
  "binders": {"B1": {"name": "hexon (major capsid protein) of HAdV-C5 in the Ad5F35-ts1 virion (natural protein)", "chain": "MATPSMMPQWSYMHISGQDASEYLSPGLVQFARATETYFSLNNKFRNPTVAPTHDVTTDRSQRLTLRFIPVDREDTAYSYKARFTLAVGDNRVLDMASTYFDIRGVLDRGPTFKPYSGTAYNALAPKGAPNPCEWDEAATALEINLEEEDDDNEDEVDEQAEQQKTHVFGQAPYSGINITKEGIQIGVEGQTPKYADKTFQPEPQIGESQWYETEINHAAGRVLKKTTPMKPCYGSYAKPTNENGGQGILVKQQNGKLESQVEMQFFSTTEATAGNGDNLTPKVVLYSEDVDIETPDTHISYMPTIKEGNSRELMGQQSMPNRPNYIAFRDNFIGLMYYNSTGNMGVLAGQASQLNAVVDLQDRNTELSYQLLLDSIGDRTRYFSMWNQAVDSYDPDVRIIENHGTEDELPNYCFPLGGVINTETLTKVKPKTGQENGWEKDATEFSDKNEIRVGNNFAMEINLNANLWRNFLYSNIALYLPDKLKYSPSNVKISDNPNTYDYMNKRVVAPGLVDCYINLGARWSLDYMDNVNPFNHHRNAGLRYRSMLLGNGRYVPFHIQVPQKFFAIKNLLLLPGSYTYEWNFRKDVNMVLQSSLGNDLRVDGASIKFDSICLYATFFPMAHNTASTLEAMLRNDTNDQSFNDYLSAANMLYPIPANATNVPISIPSRNWAAFRGWAFTRLKTKETPSLGSGYDPYYTYSGSIPYLDGTFYLNHTFKKVAITFDSSVSWPGNDRLLTPNEFEIKRSVDGEGYNVAQCNMTKDWFLVQMLANYNIGYQGFYIPESYKDRMYSFFRNFQPMSRQVVDDTKYKDYQQVGILHQHNNSGFVGYLAPTMREGQAYPANFPYPLIGKTAVDSITQKKFLCDRTLWRIPFSSNFMSMGALTDLGQNLLYANSAHALDMTFEVDPMDEPTLLYVLFEVFDVVRVHRPHRGVIETVYLRTPFSAGNATT"}},
  "key": {"[1]": {"biological_target": "B1", "assay": "[…]"}, "[…]": {"biological_target": "the molecule itself", "assay": "[…]"}},
  "data": [
    {"binder": "precursor of protein VI (pVI) of HAdV-C5 in the Ad5F35-ts1 virion (natural protein) MEDINFASLAPRHGSRPFMGNWQDIGTSNMSGGAFSWGSLWSGIKNFGSTVKNYGSKAWNSSTGQMLRDKLKEQNFQQKVVDGLASGISGVVDLANQAVQNKINSKLDPRPPVEEPPPAVETVSPEGRGEKRPRPDREETLVTQIDEPPSYEEALKQGLPTTRPIAPMATGVLGQHTPVTLDLPPPADTQQKPVLPGPTAVVVTRPSRASLRRAASGPRSLRPVASGNWQSTLNSIVGLGVQSLKRRRCF", "values": [
      {"measurement": "binding result", "setting": "[1]", "value": "binds"}
    ]},
    {"binder": "protein IX of HAdV-C5 in the Ad5F35-ts1 virion (natural protein) MSTNSFDGSIVSSYLTTRMPPWAGVRQNVMGSSIDGRPVLPANSTTLTYETVSGTPLETAASAAASAAAATARGIVTDFAFLSPLASSAASRSSARDDKLTALLAQLDSLTRELNVVSQQLLDLRQQVSALKASSPPNAV", "values": [
      {"measurement": "binding result", "setting": "[1]", "value": "binds"}
    ]},
    {"binder": "B1", "values": [
      {"measurement": "binding result", "setting": "[…]", "value": "binds"}
    ]},
    {"binder": "precursor of protein VIII (pVIII) of HAdV-C5 in the Ad5F35-ts1 virion (natural protein) MSKEIPTPYMWSYQPQMGLAAGAAQDYSTRINYMSAGPHMISRVNGIRAHRNRILLEQAAITTTPRNNLNPRSWPAALVYQESPAPTTVVLPRDAQAEVQMTNSGAQLAGGFRHRVRSPGQGITHLTIRGRGIQLNDESVSSSLGLRPDGTFQIGGAGRPSFTPRQAILTLQTSSSEPRSGGIGTLQFIEEFVPSVYFNPFSGPPGHYPDQFIPNFDAVKDSADGYD", "values": [
      {"measurement": "binding result", "setting": "[1]", "value": "binds"}
    ]},
    {"binder": "penton base of HAdV-C5 in the Ad5F35-ts1 virion (natural protein) MRRAAMYEEGPPPSYESVVSAAPVAAALGSPFDAPLDPPFVPPRYLRPTGGRNSIRYSELAPLFDTTRVYLVDNKSTDVASLNYQNDHSNFLTTVIQNNDYSPGEASTQTINLDDRSHWGGDLKTILHTNMPNVNEFMFTNKFKARVMVSRLPTKDNQVELKYEWVEFTLPEGNYSETMTIDLMNNAIVEHYLKVGRQNGVLESDIGVKFDTRNFRLGFDPVTGLVMPGVYTNEAFHPDIILLPGCGVDFTHSRLSNLLGIRKRQPFQEGFRITYDDLEGGNIPALLDVDAYQASLKDDTEQGGGGAGGSNSSGSGAEENSNAAAAAMQPVEDMNDHAIRGDTFATRAEEKRAEAEAAAEAAAPAAQPEVEKPQKKPVIKPLTEDSKKRSYNLISNDSTFTQYRSWYLAYNYGDPQTGIRSWTLLCTPDVTCGSEQVYWSLPDMMQDPVTFRSTRQISNFPVVGAELLPVHSKSFYNDQAVYSQLIRQFTSLTHVFNRFPENQILARPPAPTITTVSENVPALTDHGTLPLRNSIGGVQRVTITDARRRTCPYVYKALGIVSPRVLSSRTF", "values": [
      {"measurement": "binding result", "setting": "[…]", "value": "binds"},
      {"measurement": "binding result", "setting": "[1]", "value": "binds"}
    ]},
    {"binder": "precursor of protein IIIa (pIIIa) of HAdV-C5 in the Ad5F35-ts1 virion (natural protein) MMQDATDPAVRAALQSQPSGLNSTDDWRQVMDRIMSLTARNPDAFRQQPQANRLSAILEAVVPARANPTHEKVLAIVNALAENRAIRPDEAGLVYDALLQRVARYNSGNVQTNLDRLVGDVREAVAQRERAQQQGNLGSMVALNAFLSTQPANVPRGQEDYTNFVSALRLMVTETPQSEVYQSGPDYFFQTSRQGLQTVNLSQAFKNLQGLWGVRAPTGDRATVSSLLTPNSRLLLLLIAPFTDSGSVSRDTYLGHLLTLYREAIGQAHVDEHTFQEITSVSRALGQEDTGSLEATLNYLLTNRRQKIPSLHSLNSEEERILRYVQQSVSLNLMRDGVTPSVALDMTARNMEPGMYASNRPFINRLMDYLHRAAAVNPEYFTNAILNPHWLPPPGFYTGGFEVPEGNDGFLWDDIDDSVFSPQPQTLLELQQREQAEAALRKESFRRPSSLSDLGAAAPRSDASSPFPSLIGSLTSTRTTRPRLLGEEEYLNNSLLQPQREKNLPPAFPNNGIESLVDKMSRWKTYAQEHRDVPGPRPPTRRQRHDRQRGLVWEDDDSADDSSVLDLGGSGNPFAHLRPRLGRMF", "values": [
      {"measurement": "binding result", "setting": "[…]", "value": "binds"},
      {"measurement": "binding result", "setting": "[1]", "value": "binds"}
    ]}
  ]
}
